Data on 94 variants can be found in the supplement of paper PMC10567573.

The labels stand for the following.
B1: DVL3 (parent)
chain: FCADNPSELPPPMERTGGIGDSRP
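Note: lentivirally expressed fusions sorted by FACS into six bins by GFP to DsRed ratio, PSI derived from sequencing read proportions per bin multiplied by bin number.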

Variants of B1 are the subject of this data set. The data set is described as follows: protein stability index of a GFP-peptide fusion (GPS, HEK-293T) (PSI 1-6); higher = more stable. To be noted: c terminus: a fixed tail appended.
For the variant FCADNPSELPPPMEVTGGIGDSRP [R15V], the protein stability index came out at 4.5.

Regarding FCADNPSELPPPMEMTGGIGDSRP [R15M], the protein stability index amounted to 4.25. For FCADNPSELPPPMEHTGGIGDSRP [R15H] the value was 4.97; for FCADNPSELPPPMELTGGIGDSRP [R15L], 4.51; for FCADNPSELPPPMETTGGIGDSRP [R15T], 4.55.

With FCADNPSELPPPMEITGGIGDSRP [R15I], the protein stability index was 4.56.

For the variant FCADNPSELPPPMECTGGIGDSRP [R15C], the protein stability index amounted to 4.69. The value for FCADNPSELPPPMENTGGIGDSRP [R15N] was 4.79; that for FCADNPSELPPPMEYTGGIGDSRP [R15Y] was 4.39. For FCADNPSELPPPMEGTGGIGDSRP [R15G] the value was 4.56.

With FCADNPSELPPPMEATGGIGDSRP [R15A], the protein stability index came to 5.48. In the case of FCADNPSELPPPMEKTGGIGDSRP [R15K], the protein stability index is 4.45. For FCADNPSELPPPMEETGGIGDSRP [R15E] the value was 5.37; for FCADNPSELPPPMEFTGGIGDSRP [R15F], 4.1; for FCADNPSELPPPMEPTGGIGDSRP [R15P], 4.99. Regarding FCADNPSELPPPMEWTGGIGDSRP [R15W], the protein stability index was 3.77. For FCADNPSELPPPMEDTGGIGDSRP [R15D] the value was 4.76. The value for FCADNPSELPPPMEQTGGIGDSRP [R15Q] was 4.37; that for FCADNPSELPPPMESTGGIGDSRP [R15S] was 4.82; that for FCADNPSELPPPMERTGGYGDSRP [I19Y] was 4.35.

For the variant FCADNPSELPPPMERTGGCGDSRP [I19C], the protein stability index worked out at 4.94. For the variant FCADNPSELPPPMERTGGMGDSRP [I19M], the protein stability index was found to be 4.8. For FCADNPSELPPPMERTGGTGDSRP [I19T] the value was 4.31. The value for FCADNPSELPPPMERTGGEGDSRP [I19E] was 5.77. As to FCADNPSELPPPMERTGGAGDSRP [I19A], the protein stability index turned out to be 5.33. The value for FCADNPSELPPPMERTGGWGDSRP [I19W] was 3.51; that for FCADNPSELPPPMERTGGNGDSRP [I19N] was 4.82; that for FCADNPSELPPPMERTGGRGDSRP [I19R] was 4.74.

FCADNPSELPPPMERTGGVGDSRP [I19V]: the protein stability index was determined as 5.09.

With FCADNPSELPPPMERTGGKGDSRP [I19K], the protein stability index came to 5.59.

On to FCADNPSELPPPMERTGGDGDSRP [I19D], for which the protein stability index is 4.94. The value for FCADNPSELPPPMERTGGSGDSRP [I19S] was 5.22. The value for FCADNPSELPPPMERTGGQGDSRP [I19Q] was 4.65. As to FCADNPSELPPPMERTGGHGDSRP [I19H], the protein stability index was found to be 5.16. The value for FCADNPSELPPPMERTGGFGDSRP [I19F] was 4.37. The value for FCADNPSELPPPMERCGGIGDSRP [T16C] was 4.07. For FCADNPSELPPPMERWGGIGDSRP [T16W] the value was 2.55; for FCADNPSELPPPMERQGGIGDSRP [T16Q], 5. With FCADNPSELPPPMERGGGIGDSRP [T16G], the protein stability index worked out at 4.45.

Regarding FCADNPSELPPPMEREGGIGDSRP [T16E], the protein stability index came to 4.45. The value for FCADNPSELPPPMERFGGIGDSRP [T16F] was 3.95. As to FCADNPSELPPPMERRGGIGDSRP [T16R], the protein stability index came out at 4.5. For FCADNPSELPPPMERNGGIGDSRP [T16N] the value was 4.7; for FCADNPSELPPPMERMGGIGDSRP [T16M], 4.11; for FCADNPSELPPPMERHGGIGDSRP [T16H], 4.33. The value for FCADNPSELPPPMERKGGIGDSRP [T16K] was 4.29. For FCADNPSELPPPMERPGGIGDSRP [T16P] the value was 3.87; for FCADNPSELPPPMERDGGIGDSRP [T16D], 5.18; for FCADNPSELPPPMERVGGIGDSRP [T16V], 4.02. As to FCADNPSELPPPMERIGGIGDSRP [T16I], the protein stability index is 3.98. For FCADNPSELPPPMERLGGIGDSRP [T16L] the value was 3.8; for FCADNPSELPPPMERSGGIGDSRP [T16S], 4.25; for FCADNPSELPPPMERAGGIGDSRP [T16A], 4.6.

Take FCADNPSELPPPMERYGGIGDSRP [T16Y]: the protein stability index was found to be 3.96. The value for FCADNPSELPPPMERTGGIGRSRP [D21R] was 3.71; that for FCADNPSELPPPMERTGGIGYSRP [D21Y] was 3.92; that for FCADNPSELPPPMERTGGIGLSRP [D21L] was 3.48. The value for FCADNPSELPPPMERTGGIGISRP [D21I] was 3.77. For FCADNPSELPPPMERTGGIGFSRP [D21F] the value was 3.89. Regarding FCADNPSELPPPMERTGGIGESRP [D21E], the protein stability index was 5.27. Turning to FCADNPSELPPPMERTGGIGQSRP [D21Q], the protein stability index is 4.58.

With FCADNPSELPPPMERTGGIGTSRP [D21T], the protein stability index stood at 4.52.

For the variant FCADNPSELPPPMERTGGIGCSRP [D21C], the protein stability index stood at 3.98. The value for FCADNPSELPPPMERTGGIGGSRP [D21G] was 4.36; that for FCADNPSELPPPMERTGGIGNSRP [D21N] was 4.11.

As for FCADNPSELPPPMERTGGIGPSRP [D21P], the protein stability index was found to be 4.16. On to FCADNPSELPPPMERTGGIGHSRP [D21H], for which the protein stability index turned out to be 4.37. As to FCADNPSELPPPMERTGGIGASRP [D21A], the protein stability index was found to be 4.36.

As for FCADNPSELPPPMERTGGIGWSRP [D21W], the protein stability index was found to be 2.97. Take FCADNPSELPPPMERTGGIGKSRP [D21K]: the protein stability index came to 4.21. With FCADNPSELPPPMERTGGIGSSRP [D21S], the protein stability index was found to be 4.35. The value for FCADNPSELPPPMERTGGIGMSRP [D21M] was 3.67. Take FCADNPSELPPPMERTGGIGDSRR [P24R]: the protein stability index amounted to 5.16. The value for FCADNPSELPPPMERTGGIGDSRH [P24H] was 4.66; that for FCADNPSELPPPMERTGGIGDSRK [P24K] was 4.92. For FCADNPSELPPPMERTGGIGDSRG [P24G] the value was 4.71; for FCADNPSELPPPMERTGGIGDSRC [P24C], 4.39. For FCADNPSELPPPMERTGGIGDSRL [P24L] the value was 3.96; for FCADNPSELPPPMERTGGIGDSRA [P24A], 3.79; for FCADNPSELPPPMERTGGIGDSRF [P24F], 3.82. For the variant FCADNPSELPPPMERTGGIGDSRQ [P24Q], the protein stability index was 4.58.

Take FCADNPSELPPPMERTGGIGDSRE [P24E]: the protein stability index is 5.45.

As to FCADNPSELPPPMERTGGIGDSRI [P24I], the protein stability index turned out to be 4.32.

Consider FCADNPSELPPPMERTGGIGDSRM [P24M], for which the protein stability index came to 3.65. Consider FCADNPSELPPPMERTGGIGDSRD [P24D], for which the protein stability index was determined as 4.86. The value for FCADNPSELPPPMERTGGIGDSRN [P24N] was 4.6; that for FCADNPSELPPPMERTGGIGDPRP [S22P] was 4.63.

For FCADNPSELPPPMERTGGIGDFRP [S22F], the protein stability index is 3.28. For FCADNPSELPPPMERTGGIGDTRP [S22T] the value was 4.7; for FCADNPSELPPPMERTGGIGDIRP [S22I], 4. For FCADNPSELPPPMERTGGIGDNRP [S22N] the value was 5.01; for FCADNPSELPPPMERTGGIGDWRP [S22W], 3.97. For FCADNPSELPPPMERTGGIGDGRP [S22G] the value was 4; for FCADNPSELPPPMERTGGIGDMRP [S22M], 4.09.
